# Experimental data published in publication PMC6415886.
# T1: INTP5 (biosimilar pegfilgrastim, N-terminally pegylated filgrastim produced by Intas) (human), P09919
# T1 chain: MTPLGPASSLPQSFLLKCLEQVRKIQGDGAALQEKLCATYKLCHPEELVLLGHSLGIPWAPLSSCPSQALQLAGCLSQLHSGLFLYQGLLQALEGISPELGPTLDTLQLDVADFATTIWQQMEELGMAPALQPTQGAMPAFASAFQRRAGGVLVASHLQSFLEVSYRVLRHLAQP
# B1: INTP5 (biosimilar pegfilgrastim, N-terminally pegylated filgrastim produced by Intas), P09919-2 31-204 (ligand)
# chain: T1 chain
# modifications: here or on the partner: 20 kDa monomethoxypolyethylene glycol (mPEG) on the N-terminal amino group of Met1, secondary amine linkage; 20 kDa monomethoxypolyethylene glycol (mPEG) on the N-terminal amino group of Met1, secondary amine linkage
# Biological target: T1, INTP5 (biosimilar pegfilgrastim, …)
# Assay: SEC-MALS; vortexed (stress aggregated) INTP5; TSKgel G3000 SWXL, phosphate buffer with 100 mM NaCl and 10% ethanol, 25°C; 36 μg loaded
# Details: remark: other sources report otherwise
binder,measurement,value
B1,stoichiometry N,2
